Reference: patent US20050182242A1, “Global analysis of protein activities using proteome chips” (priority 2001, published 2005)

B1: ARG1: yeast GST-HisX6 fusion protein on proteome chip (protein, UniProt P22768 1-420, looked up)
Argininosuccinate synthase: MSKGKVCLAYSGGLDTSVILAWLLDQGYEVVAFMANVGQEEDFDAAKEKALKIGACKFVCVDCREDFVKDILFPAVQVNAVYEDVYLLGTSLARPVIAKAQIDVAKQEGCFAVSHGCTGKGNDQIRFELSFYALKPDVKCITPWRMPEFFERFAGRKDLLDYAAQKGIPVAQTKAKPWSTDENQAHISYEAGILEDPDTTPPKDMWKLIVDPMDAPDQPQDLTIDFERGLPVKLTYTDNKTSKEVSVTKPLDVFLAASNLARANGVGRIDIVEDRYINLKSRGCYEQAPLTVLRKAHVDLEGLTLDKEVRQLRDSFVTPNYSRLIYNGSYFTPECEYIRSMIQPSQNSVNGTVRVRLYKGNVIILGRSTKTEKLYDPTESSMDELTGFLPTDTTGFIAIQAIRIKKYGESKKTKGEELTL
modifications: GST-His6 tag
notes: yeast GST-HisX6 fusion protein on proteome chip
B2: HIS7: yeast GST-HisX6 fusion protein on proteome chip (protein, UniProt P33734 1-552, looked up)
Imidazole glycerol phosphate …: MPVVHVIDVESGNLQSLTNAIEHLGYEVQLVKSPKDFNISGTSRLILPGVGNYGHFVDNLFNRGFEKPIREYIESGKPIMGICVGLQALFAGSVESPKSTGLNYIDFKLSRFDDSEKPVPEIGWNSCIPSENLFFGLDPYKRYYFVHSFAAILNSEKKKNLENDGWKIAKAKYGSEEFIAAVNKNNIFATQFHPEKSGKAGLNVIENFLKQQSPPIPNYSAEEKELLMNDYSNYGLTRRIIACLDVRTNDQGDLVVTKGDQYDVREKSDGKGVRNLGKPVQLAQKYYQQGADEVTFLNITSFRDCPLKDTPMLEVLKQAAKTVFVPLTVGGGIKDIVDVDGTKIPALEVASLYFRSGADKVSIGTDAVYAAEKYYELGNRGDGTSPIETISKAYGAQAVVISVDPKRVYVNSQADTKNKVFETEYPGPNGEKYCWYQCTIKGGRESRDLGVWELTRACEALGAGEILLNCIDKDGSNSGYDLELIEHVKDAVKIPVIASSGAGVPEHFEEAFLKTRADACLGAGMFHRGEFTVNDVKEYLLEHGLKVRMDEE
modifications: GST-His6 fusion tag
notes: as for B1
B3: DTR1: yeast GST-HisX6 fusion protein on proteome chip (protein, UniProt P38125 1-572, looked up)
Dityrosine transporter 1: MGSEPFQKKNLGLQINSQESGTTRSTFHSLEDLGDDVINESWDQVNQKRANIDHDVFHEHPDSSPSLSAQKAKTKEEEVAVKSSNSQSRDPSPDTQAHIPYTYFSKDQRLIIFGIIIFIGFLGPMSGNIYIPALPLLQREYDVSATTINATVSVFMAVFSVGPLFWGALADFGGRKFLYMVSLSLMLIVNILLAAVPVNIAALFVLRIFQAFASSSVISLGAGTVTDVVPPKHRGKAIAYFMMGPNMGPIIAPIVAGLILMKGNYWRWLFGFTSIMTGIALILVTALLPETLRCIVGNGDPKWGDKKDERENNESPFFEGNKISHRRLFPDIGIRKPVNNDAFFQENFPKPPKAGLTLYWKMIKCPPIIITSVSTALLFSSYYAFSVTFSYYLEHDYRFTMLEIGAAYVCPGVAMLLGSQSGGHLSDYLRSRWIKSHPKKKFPAEFRLLLNLIGILLTICGTIGYGWAIFFHYHFVVLLVFSALTAFGMTWCSNTSMTYLTELFPKRAAGTVAVSSFFRNVGAAISSAIILQLCNAMGIGWCFTGLGLCSSISLIGILYLLIFQRKYTAKEF
modifications: GST-His6 tag
notes: as for B1
B4: ERV1: yeast GST-HisX6 fusion protein on proteome chip (protein, UniProt P27882 1-189, looked up)
Mitochondrial FAD-linked …: MKAIDKMTDNPPQEGLSGRKIIYDEDGKPCRSCNTLLDFQYVTGKISNGLKNLSSNGKLAGTGALTGEASELMPGSRTYRKVDPPDVEQLGRSSWTLLHSVAASYPAQPTDQQKGEMKQFLNIFSHIYPCNWCAKDFEKYIRENAPQVESREELGRWMCEAHNKVNKKLRKPKFDCNFWEKRWKDGWDE
modifications: GST-His6 tag
notes: as for B1
B5: PAU5: yeast GST-HisX6 fusion protein on proteome chip (protein, UniProt P43575 1-122, looked up)
Seripauperin-5: MVKLTSIAAGVAAIAAGASAAATTTLSQSDERVNLVELGVYVSDIRAHLAEYYSFQAAHPTETYPVEIAEAVFNYGDFTTMLTGIPADQVTRVITGVPWYSSRLKPAISSALSADGIYTIAN
modifications: GST-His6 fusion tag
notes: as for B1
B6: ARO4: yeast GST-HisX6 fusion protein on proteome chip (protein, UniProt P32449 2-370, looked up)
Phospho-2-dehydro-3-deoxyhepto …: SESPMFAANGMPKVNQGAEEDVRILGYDPLASPALLQVQIPATPTSLETAKRGRREAIDIITGKDDRVLVIVGPCSIHDLEAAQEYALRLKKLSDELKGDLSIIMRAYLEKPRTTVGWKGLINDPDVNNTFNINKGLQSARQLFVNLTNIGLPIGSEMLDTISPQYLADLVSFGAIGARTTESQLHRELASGLSFPVGFKNGTDGTLNVAVDACQAAAHSHHFMGVTKHGVAAITTTKGNEHCFVILRGGKKGTNYDAKSVAEAKAQLPAGSNGLMIDYSHGNSNKDFRNQPKVNDVVCEQIANGENAITGVMIESNINEGNQGIPAEGKAGLKYGVSITDACIGWETTEDVLRKLAAAVRQRREVNKK
modifications: GST-His6 fusion tag
notes: as for B1

Assays:
Details in all cases: liposome binding signal on yeast proteome chip, Cy3-streptavidin detection
[1] = tested on: phosphatidylcholine (PC) liposomes; assay: Yeast proteome chip probed with PC liposomes
Summary of the method: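 Sonicated liposomes in TBS, of phosphatidylcholine with 1% (w/w) biotin-DHPE plus 5% (w/w) of the named phosphoinositide (PC-only liposomes lacking it), were incubated on blocked chips of GST-RGS-His6-tagged yeast ORF proteins for 1 h at RT. Bound liposomes were detected with Cy3- or Cy5-streptavidin after PBS washes.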

PI(3,4,5)P3 liposomes = assay: Yeast proteome chip probed with PI(3,4,5)P3 liposomes
PI(3,4)P2 liposomes = assay: Yeast proteome chip probed with PI(3,4)P2 liposomes
PI(3)P liposomes = assay: Yeast proteome chip probed with PI(3)P liposomes
From the text: To identify PI-binding proteins in yeast, liposomes were used as probes because the liposome provides the most relevant physiological condition to assay the interactors. Six types of liposomes were used. Each contains phosphatidylcholine (“PC”) with 1% (w/w) N-(biotinoyl)-1,2-dihexadecanoyl-sn-glycero-3-phosphoethanolamine, triethylammonium salt (biotin DHPE). The biotinylated lipid serves as a label that can be detected by Cy3-streptavidin (21). In addition to PC, the five other liposomes contain either 5% (w/w) PI(3)P, PI(4)P, PI(3,4)P2, PI(4,5)P2, or PI(3,4,5)P3 (FIG. 3A).
The protein-liposome interaction was assayed as follows. Appropriate amounts of each lipid in chloroform were mixed and dried under nitrogen. The lipid mixture was resuspended in TBS buffer by vortexing. The liposomes were created by sonication. Blocked proteome chips were washed three to five times in PBS buffer, and the extra liquid on the glass surface was removed by tapping the slides vertically on a KIMWIPE™. 200 μl of liposome solution was added to the proteome chip and immediately covered by a hydrophobic plastic cover slip (GRACE BIO-LAB™, USA). After trapped air bubbles were removed, the chip was incubated in a humidity chamber at RT for one hour. To remove the cover slip, the chip was immersed into large volume of PBS buffer (50 ml), so that the slip would float away. The chip was then moved to a second PBS bath (>50 ml) and washed 3×5 min with shaking at RT. After removing extra liquid on the surface of the chip, about 100 μl of Cy3 or Cy5 conjugated streptavidin (PIERCE™, USA; 1:2000 to 1:4000 dilution) was added to the surface and covered by a hydrophobic plastic cover slip (GRACE BIO-LABS™, USA). The chip was incubated for greater than 30 min in the dark at RT. The chip was then washed as described above. To completely remove the liquid on the chip, the chip was spun to dryness at 1500-2000 rpm for 5-10 min at RT.
• 1. S. Fields, Y. Kohara, D. J. Lockhart, Proc. Natl. Acad. Sci. 96, 8825 (1999); A. Goffeau et al., Science 274, 563 (1996). • 2 P. Ross-Macdonald et al., Nature 402, 413 (1999); J. L., DeRisi, V. R. Iyer, P. O. Brown, Science 278, 680 (1997); E. A. Winzeler et al., Science 285, 901 (1999). P. Uetz et al., Nature 403, 623 (2000); T. Ito et al., Proc. Natl. Acad. Sci. USA. 97, 1143 (2000) • 3 H. Zhu, M. Snyder, Curr. Opin. Chem. Biol. 5, 40 (2001). • 4 M. R. Martzen et al., Science 286, 1153 (1999). • 5 H. Zhu et al., Nat. Genet. 26, 283 (2000). • 6 G. MacBeath, S. L. Schreiber, Science 289, 1760 (2000). • 7 A. Caveman, J. Cell Sci. 113, 3543 (2000). • 8 P. Arenkov et al., Anal. Biochem 278, 123 (2000). • 9 D. A. Mitchell, T. K. Marshall, R. J. Deschenes, Yeast 9, 715 (1993). The expression vector pEGH was created by inserting an RGS-HisX6 epitope tag between the GST gene and the polycloning site of pEG(KG). The yeast ORFs were cloned using the strategy described previously (5), except every step was done in a 96-well format. Plasmid DNAs confirmed by DNA sequencing were reintroduced into both yeast (Y258) and E. coli (DH5a). […] 0.1 mM calcium was present in buffers in all subsequent steps. The chip was washed three times with PBS at RT. Cy3-conjugated streptavidin (Jackson IR, USA) (1:5000 dilution) was added to the chip and incubated for 30 min at RT. After extensive washing, the chip was spun dry and scanned using a microarray scanner; the data was subsequently acquired with the GENEPIX™ array densitometry software (Axon, USA). • 12 S. S. Hook, A. R. Means, Annu. Rev. Pharmacol. Toxicol.41, 471 (2001). • 13 M. S. Cyert, R. Kunisawa, D. Kaim, J. Thorner, Proc. Natl. Acad. Sci. USA 88, 7376 (1991). • 14 D. A. Stirling, K. A. Welch, M. J. Stark, EMBO J. 13, 4329 (1994). • 15 F. Bohl, Kruse, EMBO J. 19, 5514 (2000); E. Bertrand et al., Mol. Cell 2, 437 (1998). • 16 D. C. Winter, E. Y. Choe, R. Li, Proc. Nat. Acad Sci. USA 96, 7288 (1999). • 17 C.

PI(4,5)P2 liposomes = assay: Yeast proteome chip probed with PI(4,5)P2 liposomes
PI(4)P liposomes = assay: Yeast proteome chip probed with PI(4)P liposomes

| Molecule | PC [1] | PI(3, 4, 5)P3 (PI(3,4,5)P3 liposomes) | PI(3, 4)P2 (PI(3,4)P2 liposomes) | PI(3)P (PI(3)P liposomes) | PI(4, 5)P2 (PI(4,5)P2 liposomes) | PI(4)P (PI(4)P liposomes) |
| --- | --- | --- | --- | --- | --- | --- |
| B1 | 23.77 | −6.08 | 1.73 | 213.00 | 3.48 | −6.31 |
| B2 | 193.11 | 78.07 | – | 20.00 | 18.73 | 226.45 |
| B3 | 24.07 | 13.72 | 2.83 | 23.00 | 3.05 | −4.79 |
| B4 | – | 1.35 | – | 15.75 | 18.94 | −3.27 |
| B5 | 22.30 | – | −5.02 | −3.00 | −1.31 | 31.35 |
| B6 | 28.17 | 29.25 | 34.53 | 87.50 | 20.47 | 42.24 |
